This series can be described thus: Tissue distribution of fluorescently labeled polyamide. Type of series: in vivo. The conditions noted are these: 7.5 mg/kg tail vein, mice. As to the method:
On day 1 (24 hours), day 6 and day 21 after the intravenous injection, the mice were dissected, and each tissue of the livers, the spleens and the kidneys was collected and prepared into frozen sections, which were then fixed in 4% paraformaldehyde for 30 minutes.

Consider one compound from patent US20110046070A1, “GENE EXPRESSION INHIBITOR SELECTIVE FOR MATRIX METALLOPROTEINASE-9 GENE” (priority 2008, published 2011).

On to `CN(C)CCCNC(=O)CCNC(=O)c1cc(NC(=O)c2cc(NC(=O)CCNC(=O)c3nc(NC(=O)c4nc(NC(=O)CCCNC(=O)c5cc(NC(=O)c6cc(NC(=O)CCNC(=O)c7cc(NC(=O)c8cc(NC(=O)CCNC(=S)Nc9ccc(-c%10c%11ccc(=O)cc-%11oc%11cc(O)ccc%10%11)c(C(=O)O)c9)cn8C)cn7C)cn6C)cn5C)cn4C)cn3C)cn2C)cn1C` [HMMP9NFκβ-FITC], for which, where the note is “after 1 day”, the “incorporation in the nuclei of liver and kidney cells” value is on record as “A large number”; the “incorporation in the nuclei of spleen cells” value was “also incorporated in the nuclei of spleen cells”. The “FITC fluorescence in tissue” value (after 6 days) is given as “strong FITC fluorescence was observed”. Moreover, the “FITC fluorescence intensity in the cells of each tissue” value (after 21 days) was “remarkably attenuated”.
